Source: patent publication US6866851 (WASHINGTON UNIVERSITY, dated 2005)

Biological target: GFRα2-RET receptor complex (cells transfected with GFRα2 and expressing RET)
Test: cell-based or functional assay

B1: PGP-F2ac (His-Flag-PGP-F2ac, from mouse persephin and rat GDNF) (ligand)
chain: ALAHHHHHHDYKDDDDKGSCRLWSLTLPVAELGLGYASEEKVIFRYCAGSCPQEARTQHSLVLARLRGRGRAHGRPCCQPTAFDDDVTFLDDQHHYHILRKHSAAACGC
  GFRα2-RET reporter activation relative to GDNF: < 30 % of GDNF
